Earlier results as cited in article PMC7232523.

What was measured:
IL-4Ra (Homo sapiens) = IL-4Ra (Homo sapiens) (UniProt P24394)
[1] = target: IL-13Ra1/IL-4Ra (Homo sapiens) (UniProt P78552)
Chain of UniProt P78552 (P78552 22-343, chain 1 of 2): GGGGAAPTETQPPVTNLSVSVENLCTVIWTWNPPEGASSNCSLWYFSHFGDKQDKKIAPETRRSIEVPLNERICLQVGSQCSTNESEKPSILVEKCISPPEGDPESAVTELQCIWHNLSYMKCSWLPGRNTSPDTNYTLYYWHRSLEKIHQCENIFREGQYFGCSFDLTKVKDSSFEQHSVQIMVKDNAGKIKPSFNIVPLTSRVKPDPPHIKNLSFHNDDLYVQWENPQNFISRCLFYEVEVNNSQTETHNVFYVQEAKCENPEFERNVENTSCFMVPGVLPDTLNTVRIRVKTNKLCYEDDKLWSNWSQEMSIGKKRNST
Chain of UniProt P78552 (P24394 26-232, chain 2 of 2, further chain): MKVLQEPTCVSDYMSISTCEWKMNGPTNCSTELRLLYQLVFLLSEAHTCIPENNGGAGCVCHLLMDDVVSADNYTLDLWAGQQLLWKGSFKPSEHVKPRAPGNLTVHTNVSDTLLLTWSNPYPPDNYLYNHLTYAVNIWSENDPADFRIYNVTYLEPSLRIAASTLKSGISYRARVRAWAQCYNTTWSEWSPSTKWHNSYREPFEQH

Chain of UniProt P24394 (P24394 26-232): as the sequence (P24394 26-232, chain 2 of 2, further chain) above

Kd (IL-4Ra (Homo sapiens)) [pM] | Kd [1] [pM] | Substance
100 |  | IL-4 (from UniProt P05112)
 | 35 | IL-13 (from UniProt P35225)
